Results: patent US20240199755A1 (KYMAB, published 2024)

Tests used:
[1] = molecular target: T1, BMP-2; test: SPR binding level normalised to molecular weight, Tfr2-ECD immobilised; reference holo-Tf
T1 construct: The BMP-2 used in the heterotopic ossification model was from Thermo Fisher, and in the co-IP from Peprotech; Species is never stated, so all are treated as one molecule; also called bone morphogenetic protein 2
T1 sequence (P12643 283-396, species assumed, looked up): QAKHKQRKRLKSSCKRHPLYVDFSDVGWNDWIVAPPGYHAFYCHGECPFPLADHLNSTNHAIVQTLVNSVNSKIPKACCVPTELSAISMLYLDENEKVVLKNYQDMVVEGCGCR
Description: All experiments were performed three independent times. FIG. 15a: Quantification of the binding level normalized to the molecular weight. […] FIG. 15b: Binding response of different concentrations of holo-Tf and/or BMP-2. […] (n=4). FIG. 15d: SPR analyses. […] Binding response is relative to BMP-2 alone. […] FIGS. 15b and 15d: One-way ANOVA was used for statistical analysis. […] Two-way ANOVA with Bonferroni post-hoc test was used for statistical analysis. […] All data are presented as mean±SD.

[2] = molecular target: BMP-4; test: SPR steady state analysis, BMP-4 immobilised, Tfr2-ECD 10-5000 nM as analyte, 1:1 interaction assumed
Chain of BMP-4 (P12644 293-408): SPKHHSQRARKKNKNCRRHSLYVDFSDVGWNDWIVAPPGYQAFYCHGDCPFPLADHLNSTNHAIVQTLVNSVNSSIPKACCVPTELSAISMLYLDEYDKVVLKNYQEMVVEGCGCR
Description: (§1) The binding analysis was performed at 37° C. at a flow rate of 30 μl/min. Each analyte was diluted in running buffer (HBS-P (pH 7.4), 150 mM NaCl, supplemented with 50 nM FeCl₃). In some experiments, 500 mM NaCl were used to reduce potential non-specific binding. […] Concentration-dependent binding of holo-Tf was performed without intermediate regeneration.
(§2) The kinetic fitting was performed by global fitting using the 1:1 Langmuir binding model (A+B=AB). Steady state analyses were conducted to determine the affinities (Kd). […] Binding and kinetic parameters were evaluated with Biacore™ T200 evaluation software 3.1.

[3] = molecular target: T1, BMP-2; test: SPR steady state analysis, BMP-2 immobilised, Tfr2-ECD 10-5000 nM as analyte, 1:1 interaction assumed
Description: as §1, §2

B1: Tfr2 extracellular domain (Tfr2-ECD), murine, aa 103-798, recombinant His-tagged (receptor, not shown: large carriers)
chain: RGSCQACGDSVLVVDEDVNPEDSGRTTLYWSDLQAMFLRFLGEGRMEDTIRLTSLRERVAGSARMATLVQDILDKLSRQKLDHVWTDTHYVGLQFPDPAHANTLHWVDADGSVQEQLPLEDPEVYCPYSATGNATGKLVYAHYGRSEDLQDLKAKGVELAGSLLLVRVGITSFAQKVAVAQDFGAQGVLIYPDPSDFSQDPHKPGLSSHQAVYGHVHLGTGDPYTPGFPSFNQTQFPPVESSGLPSIPAQPISADIADQLLRKLTGPVAPQEWKGHLSGSPYRLGPGPDLRLVVNNHRVSTPISNIFACIEGFAEPDHYVVIGAQRDAWGPGAAKSAVGTAILLELVRTFSSMVSNGFRPRRSLLFISWDGGDFGSVGATEWLEGYLSVLHLKAVVYVSLDNSVLGDGKFHAKTSPLLVSLIENILKQVDSPNHSGQTLYEQVALTHPSWDAEVIQPLPMDSSAYSFTAFAGVPAVEFSFMEDDRVYPFLHTKEDTYENLHKMLRGRLPAVVQAVAQLAGQLLIRLSHDHLLPLDFGRYGDVVLRHIGNLNEFSGDLKERGLTLQWVYSARGDYIRAAEKLRKEIYSSERNDERLMRMYNVRIMRVEFYFLSQYVSPADSPFRHIFLGQGDHTLGALVDHLRMLRADGSGAASSRLTAGLGFQESRFRRQLALLTWTLQGAANALSGDVWNIDNNF
notes: Expressed in Sf9 insect cells (pOCC211-Tfr2-ECD) and purified on HisTrap; Experiments were repeated with a commercial Tfr2-ECD from Cusabio (aa 103-798); also called His-Tfr2-ECD; His-MBP-c3-Tfr2-ECD
[1]
  fold binding relative to holo-Tf: 10 fold
[2]
  Kd: 0.409 µM
[3]
  Kd: 0.488 µM
